Laboratory results published in patent US6998106.
Blank lines part the entries; values can stand above or below the substance they belong to.

Experiments:
[1] = target: EGFRvIII (form used in the assay not stated) (UniProt P00533); assay: surface plasmon resonance
[2] = target: EGFRvIII (mutant epidermal growth factor receptor) expressed by the U87MGΔEGFR cell line (UniProt P00533); assay: binding of radiolabeled mAb to U87MGΔEGFR cells (Scatchard analysis per Example 2)
[3] = target: EGFRvIII (mutant epidermal growth factor receptor) expressed by the U87MGΔEGFR cell line (UniProt P00533); assay: binding of labeled mAb to EGFRvIII-positive tumor xenograft homogenate, Lindmo method (per Example 2)
[4] = target: EGFRvIII (form used in the assay not stated) (UniProt P00533); assay: SIPC-labeled scFv; method not stated
[5] = target: EGFRvIII (form used in the assay not stated) (UniProt P00533); assay: SIPC-labeled scFv; immunoreactive fraction, antigen source not stated

Ka [1]: 5.5e+09 M⁻¹
Substance: L8A4 scFv dimer with a 5 amino acid linker between the VL and VH domains

Ka [2]: 9.7e+08 M⁻¹
immunoreactive fraction [3]: 69 to 89%
Substance: ^211 At-labeled L8A4 (anti-EGFRvIII mAb L8A4 labeled with N-succinimidyl 5-[^211 At]astato-3-pyridinecarboxylate, SAPC) (antibody)

Ka [4]: 1.5e+08 M⁻¹
immunoreactive fraction [5]: 65 to 80%
Substance: scFv monomer based on the L8A4 variable region, labeled with SIPC
